According to a protein production outcome set (Wang et al. 2014):

Test: label from the status in PepcDB records

Sequence	protein production
MSLTTSKTRKSGVAMTEKLELDPARTAIVLIEYQNEFTSDGGVLHGAVADVMQHTGMLANTVAVVDAARQAGVPIMHAPITFAEGYGELTRHPYGILKGVVDGKAFVKGTWGAAIVDELAPVNGDIVIEGKRGLDTFASTNLDFILRSKGVDTIVLGGFLTNCCVESTMRTGYERGFRVITLTDCVAATSQEEHNNAISYDFPMFSVPMTSADVIAALEGHHHHHH	not failed
MSLVENLSLEPQPKRRKIDPEVKESPSRNCSHWFVRNKVCASCNTIVDNYQGRSFDYLYTGIQMSNEALGFTKRLISQTSWLEDKKLHLVLDLDHTLVHTIKVSQLSESEKYITEEVESRKDLRRFNTGFPEESLIKLRSFVHQFLKECNEMFSLYVYTKGGYDYAQLVLEMIDPDKIYFGNRVITRRESPGFKTLDLVLADERGIVVVDDKSSVWPHDKKNLLQIARYKYFGDQSCLLSECKKKIDESDEKGPLNTALRFLMDVHEEFFCDWSRKDLDSVDVRPLLKEISLRWKRKADGVV	failed
MSLVKIVRIETFPLFHRLEKPYGDANGFKRYRTCYLIRIITESGIDGWGECVDWLPALHVGFTKRIIPFLLGKQAGSRLSLVRTIQKWHQRAASAVSMALTEIAAKAADCSVCELWGGRYREEIPVYASFQSYSDSPQWISRSVSNVEAQLKKGFEQIKVKIGGTSFKEDVRHINALQHTAGSSITMILDANQSYDAAAAFKWERYFSEWTNIGWLEEPLPFDQPQDYAMLRSRLSVPVAGGENMKGPAQYVPLLSQRCLDIIQPDVMHVNGIDEFRDCLQLARYFGVRASAHAYDGSLSRLYALFAQACLPPWSKMKNDHIEPIEWDVMENPFTDLVSLQPSKGMVHIPKGKGIGTEINMEIVNRYKWDGSAYEGHHHHHH	not failed
MSLVNSLTHYEILRIPSDATQDEIKKAYRNRLLNTHPDKLSKSIHDTVSNVTINKIQDAYKILSNIKTRREYDRLILENYK	not failed
MSLWQPLVLVLLVLGCCFAAPRQRQSTLVLFPGDLRTNLTDRQLAEEYLYRYGYTRVAEMRGESKSLGPALLLLQKQLSLPETGELDSATLKAMRTPRCGVPDLGRFQTFEGDLKWHHHNITYWIQNYSEDLPRAVIDDAFARAFALWSAVTPLTFTRVYSRDADIVIQFGVAEHGDGYPFDGKDGLLAHAFPPGPGIQGDAHFDDDELWSLGKGVVVPTRFGNADGAACHFPFIFEGRSYSACTTDGRSDGLPWCSTTANYDTDDRFGFCPSERLYTRDGNADGKPCQFPFIFQGQSYSACTTDGRSDGYRWCATTANYDRDKLFGFCPTRADSTVMGGNSAGELCVFPFTFLGKEYSTCTSEGRGDGRLWCATTSNFDSDKKWGFCPDQGYSLFLVAAHEFGHALGLDHSSVPEALMYPMYRFTEGPPLHKDDVNGIRHLYGPRPEPEPRPPTTTTPQPTAPPTVCPTGPPTVHPSERPTAGPTGPPSAGPTGPPTAGPSTATTVPLSPVDDACNVNIFDAIAEIGNQLYLFKDGKYWRFSEGRGSRPQGPFLIADKWPALPRKLDSVFEEPLSKKLFFFSGRQVWVYTGASVLGPRRLDKLGLGADVAQVTGALRSGRGKMLLFSGRRLWRFDVKAQMVDPRSASEVDRMFPGVPLDTHDVFQYREKAYFCQDRFYWRVSSRSELNQVDQVGYVTYDILQCPED	not failed
MSMGKKHLNINSQNHQSTKDEDNNCKNSLFFGLFDDPESKRLRSGSMKRQYSDMGDSYHRVYDEQNDDVEYDGDGDGDEDEGSRMDMRVLMVLEYMRELYVGQLQLLKKMFPGAAKDEFLGFFNKIGDAVSQIKQDSRPPTKSMTMRRSLSAGSPRFTSKGVNLGPSDLRHERFKVTMVNAGGAAGSAGGGKGGSAAGQGQTKK	failed
MSMHPFLASPQQKIVSRMSPRPPPSPVCLGDLTHPIIAGLISVIVNYGGTFILVFQAAKIAGLSPELTASWVWSISIGVGLTGLFLSLRYREPIITAWSTPAAAFLVTALATTPYAEAIGAYMISAAAFVVLGLSGYFEKVIRLIPPGIASGLLAGILLQFGIGAFGGASVDPWLVGLLIAAYVALKRFSARYAVVGILLLGLAFLLTQGRVDLSGLKLVFAAPVFSMPEFSLNALLSVALPLFLITLTGQYMPGMLVLRNDGFKTSANPIVTVTGLGSLIMAPFGSHAFNIAAITAAIATGREAHEDPSKRWIAGIAAGCFYVLVGVFGVTLAAVFMAFPATFITTLAGLALLGTIGGSLAGAMADPTSREAALITFLASAANIKLLGIGGAFWGLLIGGLAYVVLNGPMPYRATTDHRVTEAAAK	failed
MSMKGISSAESDKLSRRISLTHKRNSEELDVFEAAVYFGYNEASSGDHGHTQKYGYNAAREENPRRWGILGGGRRISLDLPIRCSEQVYHLQQDHHEKHEVTTIKERLGNVRHKQPSSPGGKIASFLNSLFHQAGSKKNKSKSKSKTKPTDPEVEEEIPGGGWMRRRRRSSISHFFSSSRSTSTTTTTTASSSSKSLISSSSSGFRTPPPYLNTPTKNYKQFLNYTSATKQVGEEETKTNKEYSWLDEKLKVMESLSENQRIWSDDEDIDDDRRIKREGEDDGMESDSSSDLFELQNYELSRGGLPVYETTNVANINKTHI	failed
MSMNNSKQLVSPAAALLSNTTCQTENRLSVFFSVIFMTVGILSNSLAIAILMKAYQRFRQKSKASFLLLASGLVITDFFGHLINGAIAVFVYASDKEWIRFDQSNVLCSIFGICMVFSGLCPLLLGSVMAIERCIGVTKPIFHSTKITSKHVKMMLSGVCLFAVFIALLPILGHRDYKIQASRTWCFYNTEDIKDWEDRFYLLLFSFLGLLALGVSLLCNAITGITLLRVKFKSQQHRQGRSHHLEMVIQLLAIMCVSCICWSPFLGYRIILNGKEKYKVYEEQSDFLHRLQWPTLE	failed
MSMSTSTEVIAHHWAFAIFLIVAIGLCCLMLVGGWFLGGRARARSKNVPFESGIDSVGSARLRLSAKFYLVAMFFVIFDVEALYLFAWSTSIRESGWVGFVEAAIFIFVLLAGLVYLVRIGALDWTPARSRRERMNPETNSIANRQR	failed
MSMVLSFLKKFVENHVMSRHTVAVTLFLTDMAVILGTAIGVGLLRHAFDGYLDPTHYLRLLPFLLLFPAASFAMGLYQSVPLPPPCELKRLSLATCCTYLAIAIFIFFTRGGELYSRLTFALAGLVSLVAVPVARHLVRQRMARHRGWAAPALLFGKPHHVQPLAHILLSSPSLGLEPVAIVSAEHSTCHDFGCLPAFDAETTRQYAAGHPEAYAIVVMESYDEADRAHLVEHLSRLFCSVILLRSSTMSTGNIWLSPIEIGGLPGLMVRQNLLDPRRLTVKRTLDLIATTLALPLILPVMAVIALCIRLETPGPALFTQRRIGRDGYHFDILKFRTMYNDADTRLAECLEQSPELDAEWRRDHKLRCDPRVTRVGAFLRKTSLDELPQLWNVLRGDMSLVGPRPIVDSEVQRYDAAFATYTRVRPGITGLWQVSGRNNLSYPERVQRDMYYISNWSVWFDIWIIARTIPVVLHRDGAY	failed
MSNALATLASPADDIAFYEERLRAAMLTGDLKGLETLLADDLAFVDHTGCVKTKQTHLEPYRAGLLKLSRLDLSDAVVRAAGEDGRVVVVRAVTAGVYDGEAFTETLRFTRIWRRTQGPAGWKLVAGHCSVIL	not failed
MSNDSPQLPDFLLAGRYRLHRLIGAGGMGRVWEGVDELLDRPVAIKELTINEHLPPQEIEILRARMLREARSAAQLSHPSIITVFDVVEKDGFPWIVMELVHGKSLSEIIKQEGAISPERAANLGLQVAAALSVAHQRGIVHRDIKPGNVLVARGDRAVLTDFGIAYLEGSSRLTRTGSLLGSPSYLAPEQARGEPASPAADMWALGTTLYAALHGAPPFQRATPMATLTAVVVDEVPPPVKAGPLRPLLEQLLNKDPQKRPTVHEVVEELQRVVMSFPPQSSSASSTGTHTLQEEASPAPAEVSVAKPAADTSALPLSSPAEPGKRNSTLATVGLVALALCVVVAVITAVVLFVPAGGNSRADGEQPAAETSQSSEETGQAEEPEPTTSAEAAEQGVGEDDEDSEEEAEDDDYSGPPLVRHEDPTGFSLDVPEGWSVDRRGSSVFFRNPEGGYLQVDQTDSPNPDAKKDWEAQERGAAGRFSNYSLIDIRYSDHPSMERYVTASDWEFTFTINGQRMHAVNRGFHTEKKGYALFLVYPADGWEETGAPLLDRMSESFEPAA	failed
MSNENKTIHDFELNLICDFFSNMERQGPGSPEVTLKALSFIDNLTEKSLIADIGCGTGGQTMVLAGHVTGQVTGLDFLSGFIDIFNRNARQSGLQNRVTGIVGSMDDLPFRNEELDLIWSEGAIYNIGFERGLNEWRKYLKKGGYLAVSECSWFTDERPAEINDFWMDAYPEIDTIPNQVAKIHKAGYLPVATFILPENCWTDHYFTPKVAAQKIFLTKYAGNKIAEEFSMLQSIEEELYHKYKEYYGYTFFIAKKIRLLEHHHHHH	not failed
MSNGNKSEKKTLILALVAGMCGDALLSWLTMSEVSFSIFPLIALVLAVQALYQEYLNNPVSEDIPLVGLACFFVGAFGHSAFIKAQYPEAGSNFFAIMVSMILLAWIGKKLGFMEKKTSAE	failed
MSNLPFHQFCGTEGYVASRALQDVVNVAIALERPLLLKGEPGTGKTLLAYHIAKALGMEIILWNVKSTTKARDGLYTYDTVQRLNDARFGDGDVRDIRHYIKLGPLGRAFGSAERVVLLIDEVDKADIEFPNDLLFELDEMRFHVLETDEWVSAAHRPVVIVTSNSEKELPDAFLRRCVFHYIDFPDETQMRAIIDVHFPDLPAELMRSACKVFYGLREVPGLRKRPSTSELLDWIRVLLASGARLPEEETPALQSVPFLGALVKIQEDADILAHHASRSADVRTAGRRFFRLEHHHHHH	failed
MSNNTKRVGSQTIELKSKPRIIATYSVVGPREGQGPLKEYFDKILQDDCNGCESFEKAESSLMITAIEGVIKKGNVKEEDVDYLFSGDLLNQLTSTNFVAREFKIPFFGVYGACSTMAESLSLSSMIMDGDFAKYAIASTSSHFSSAERQFRFPLEYGCQRKEYSQWTVTGSGAMLLGKSGDYPYVTHVTTGIVKDYGIKDADNMGAAMAPAAVDTIYKHFVDTGRKPEDYDVIATGDLGAVGKKLTEELLKEYGYDISKVYIDCGEKIFDNEKQGTFAGGSGCGCSAVVACGYLYRMLKEKKLKRVLLVSTGALLSSTSALQGESIPGIAHAVAIEYILEHHHHHH	not failed
MSNVRIRQATTDDLIGIFEAHRNSVERLCTSEYSDQQIRMWLDGRSPETYREAVEKGSLWLAEGEQIEGFVELDGNEVSKLFIRGDVARRGLGSRLLEVALARLRASGASSAYLEATLTAEGFYAYHGFQKIGEGTFSRGNSPVSIEIIKMERPL	failed
MSNVSSETVNLNNTSIVHMNMSNVTKLTASNYIMWSRQVHALLHGYGLTQYLDATKAAPAREITVNDVASVNPEYEAWSRQDQLIFSALIGTLSLTVQPTVSRAATSADVWATLAGTYAKPSRGHIKQLQHQIKQWKKDTRTIDEYVQGFINRFDQLALIGKIIDHEDQVDYILGGLPEDYKPIVDQMEGRDTPPNGCLTNSCDEDGCFIQMALNSV	failed
MSNVVVIAVVLIVASLTGHVSAQMDMSPSSGPSGAPDCMANLMNMTGCLSYVTVGEGGGAAKPDKTCCPALAGLVESSPQCLCYLLSGDMAAQLGIKIDKAKALKLPGVCGVITPDPSLCSLFGIPVGAPVAMGDEGASPAYAPGSMSGAESPGGFGSGPSASRGSDAPSSAPYSLFLNLIIFPLAFAFYIFC	failed
MSPCGPLNLSLAGEATTCAAPWVPNTSAVPPSGASPALPIFSMTLGAVSNLLALALLAQAAGRLRRRRSAATFLLFVASLLATDLAGHVIPGALVLRLYTAGRAPAGGACHFLGGCMVFFGLCPLLLGCGMAVERCVGVTRPLLHAARVSVARARLALAAVAAVALAVALLPLARVGRYELQYPGTWCFIGLGPPGGWRQALLAGLFASLGLVALLAALVCNTLSGLALLRARWRRRSRRPPPASGPDSRRRWGAHGPRSASASSASSIASASTFFGGSRSSGSARRARAHDVEMVGQLVGIMVVSCICWSPMLVLVALAVGGWSSTSLQRPLFLAVRLASWNQILDPWVYILLRQAVLRQLLRLLPPRAGAKGGPAGLGLTPSAWEASSLRSSRHSGLSHF	failed
